This passage reports Kd results from PMC5970976.

Broadly, the Kd is the concentration at which binding is half-saturated. A high value points to a looser complex.

The target in this experiment is CHIKV virus-like particles (VLPs, strain 37997) (chikungunya virus (strain 37997)). Kind of experiment: SPR.
CHIKV virus-like particles (VLPs, strain 37997) (chikungunya virus (strain 37997)), sequence (Q5XXP3 326-748 limits assumed, chain 1 of 2): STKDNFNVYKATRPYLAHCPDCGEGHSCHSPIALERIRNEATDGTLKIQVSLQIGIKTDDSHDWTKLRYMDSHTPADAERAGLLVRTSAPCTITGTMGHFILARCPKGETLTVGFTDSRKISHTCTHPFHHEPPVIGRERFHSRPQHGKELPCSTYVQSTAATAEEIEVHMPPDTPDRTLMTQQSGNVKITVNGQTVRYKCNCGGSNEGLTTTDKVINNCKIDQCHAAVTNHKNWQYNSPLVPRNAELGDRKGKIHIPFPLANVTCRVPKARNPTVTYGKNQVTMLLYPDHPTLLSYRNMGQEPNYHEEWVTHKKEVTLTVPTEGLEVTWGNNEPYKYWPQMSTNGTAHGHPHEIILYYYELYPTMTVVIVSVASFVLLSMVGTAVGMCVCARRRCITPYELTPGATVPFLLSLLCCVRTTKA
CHIKV virus-like particles (VLPs, strain 37997) (chikungunya virus (strain 37997)), sequence (Q5XXP3 810-1248 limits assumed, chain 2 of 2): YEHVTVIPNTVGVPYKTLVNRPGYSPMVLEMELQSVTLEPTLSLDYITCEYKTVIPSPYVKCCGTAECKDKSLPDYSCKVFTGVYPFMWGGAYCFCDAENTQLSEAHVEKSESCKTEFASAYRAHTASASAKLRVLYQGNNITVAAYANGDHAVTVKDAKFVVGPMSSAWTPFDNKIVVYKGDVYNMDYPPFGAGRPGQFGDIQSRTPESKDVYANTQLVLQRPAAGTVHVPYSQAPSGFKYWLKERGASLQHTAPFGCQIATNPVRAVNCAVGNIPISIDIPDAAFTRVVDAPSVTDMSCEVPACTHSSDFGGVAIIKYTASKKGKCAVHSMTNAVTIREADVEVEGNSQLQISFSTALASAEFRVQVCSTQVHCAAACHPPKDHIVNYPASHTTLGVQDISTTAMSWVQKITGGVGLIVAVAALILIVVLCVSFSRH

In the case of “Mxra8 cleaved from the IgG backbone (recombinant Mxra8 from Mxra8-HRV-Fc) (from UniProt Q9DBV4 22-336) (domain or fragment)”, the Kd was 0.2 µM.
